Source: patent US20210292393A1 (published 2021)

B1: antibody 258 (antibody, V domains shown)
VH: QVQLQESGPGLVKPSETLSLTCTVSGGSISSYYWSWIRQPAGKGLEWIGRIYTSGSTNYNPSLKSRVTMSVDTSKNQFSLKLSSVTAADTAVYYCAAGYGSIDYWGQGTLVTVSS
VL: not shown
B2: antibody 261 (antibody, V domains shown)
VH: QVQLVESGGGVVQPGRSLRLSCAASGFTFSSYAMHWVRQAPGKGLEWVAVISYDGSNKYYADSVKGRFTISRDNSKNTLYLQMNSLRAEDTAVYYCARDEAYYDILTGYINAPKNYYYYGMDVWGQGTTVTVSS
VL: DIQMTQSPSSLSASVGDRVTITCRASQGIRNDLGWYQQKPGKAPKRLIYAASSLQSGVPSRFSGSGSGTEFTLTISSLQPEDFATYYCLQHNSYPFTFGPGTKVDIK
B3: antibody 277 (antibody, V domains shown)
VH: QVQLVESGGGVVQPGRSLRLSCAASGFTFSSYAMHWVRQAPGKGLEWVAVISYDGSNTYYADSVKGRFTISRDNSKNTLYLQMNSLRAEDTAVYYCARPYSGSYFNWFDPWGQGTLVTVSS
VL: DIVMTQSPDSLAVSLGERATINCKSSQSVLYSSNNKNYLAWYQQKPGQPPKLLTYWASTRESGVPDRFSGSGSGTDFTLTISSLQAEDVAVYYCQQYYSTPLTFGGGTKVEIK
B4: antibody 278 (antibody, V domains shown)
VH: QVQLVQSGAEVKKPGASVKVSCKASGYTFTSYYMHWVRQAPGQGLEWMGIINPSGGSTSYAQKFQGRVTMTRDTSTSTVYMELSSLRSEDTAVYYCARDHSNADPYYDFWSGYYTRTYYYGMDVWGQGTTVTVSS
VL: not shown
B5: antibody 291 (antibody, V domains shown)
VH: QVQLVESGGGVVQPGRSLRLSCAASGFTFSSYAMHWVRQAPGKGLEWVAVISYDGSNKYYADSVKGRFTISRDNSKNTLYLQMNSLRAEDTAVYYCARASGGSYFGGMDVWGQGTTVTVSS
VL: QSALTQPASVSGSPGQSITISCTGTSSDVGGYNYVSWYQQHPGKAPKLMIYEVSNRPSGVSNRFSGSKSGNTASLTISGLQAEDEADYYCSSYTSSSTLYVFGTGTKVTVL
B6: antibody 297 (antibody, V domains shown)
VH: QVQLVESGGGVVQPGRSLRLSCAASGFTFSSYAMHWVRQAPGKGLEWVAVISYDGSNKYYADSVKGRFTISRDNSKNTLYLQMNSLRAEDTAVYYCARSFRGGYYYGMDVWGQGTTVTVSS
VL: DIQLTQSPSFLSASVGDRVTITCRASQGISSYLAWYQQKPGKAPKLLIYAASTLQSGVPSRFSGSGSGTEFTLTISSLQPEDFATYYCQQLNSYPLFTFGPGTKVDIK
B7: antibody 298 (antibody, V domains shown)
VH: EVQLVESGGGLVQPGGSLRLSCAASGFTVSSNYMSWVRQAPGKGLEWVSVIYSGGSTYYADSVKGRFTISRDNSKNTLYLQMNSLRAEDTAVYYCAREEGEWEKDYYGMDVWGQGTTVTVSS
VL: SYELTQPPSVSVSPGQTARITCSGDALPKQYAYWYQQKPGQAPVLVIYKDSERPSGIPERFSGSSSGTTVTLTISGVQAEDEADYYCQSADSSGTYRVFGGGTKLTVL
B8: antibody 302 (antibody, V domains shown)
VH: QVQLVQSGAEVRKPGASVKVSCKVSGYTLSELSMHWVRQAPGKGLEWMGGFDPEDGERMYAQKFQGRVTMTEDTSTDTAYMELSSLRSEDTAIYYCTTDLSYLWSGKLEPDYWYFALWGRGTLVTVSS
VL: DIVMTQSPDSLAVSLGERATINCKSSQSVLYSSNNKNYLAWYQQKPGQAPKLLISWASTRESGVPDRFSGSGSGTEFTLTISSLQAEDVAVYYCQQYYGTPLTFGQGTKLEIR
B9: antibody 305 (antibody, V domains shown)
VH: QVQLVESGGGVVQPGRSLRLSCAASGFTFSSYAMHWVRQAPGKGLEWVAVISYDGSNKYYADSVKGRFTISRDNSKNTLYLQMNSLRAEDTAVYYCAREQTSYDYVWGTLGAYYYYGMDVWGQGTTVTVSS
VL: SSELTQDPAVSVALGQTVRITCQGDSLRSYYASWYQQKPGQAPVLVIYGKNNRPSGIPDRFSGSSSGNTASLTITGAQAEDEADYYCNSRDSSGNHLVFGGGTKLTVL
B10: antibody 307 (antibody, V domains shown)
VH: QVQLVESGGGVVQPGRSLRLSCAASGFTFSSYGMHWVRQAPGKGLEWVAVIWYDGSNKYYADSVKGRFTISRDNSKNTLYLQMNSLRAEDTAVYYCAKGYTWDYYYYGMDVWGQGTTVTVSS
VL: not shown
B11: antibody 308 (antibody, V domains shown)
VH: QLQLQESGPGLVKPSETLSLTCSVSGGSISSSSYHWGWIRQPPGKGLEWIGSIYYSGSTYYNPSLKSRVTISVDTSKNQFSLKLRSVTAADTAVYYCAGLRVVITFGGVIPKGGAFDIWGQGTMVTVSS
VL: QSALTQPASVSGSPGQSITISCTGTSSDVGGYNYVSWYQQHPGKAPKLMIYDVSNRPSGVSNRFSGSKSGNTASLTISGLQAEDEADYYCSSYTSSSTVVFGGGTKLTVL
B12: antibody 310 (antibody, V domains shown)
VH: EVQLVESGGGLVQPGGSLRLSCAASGFTFSSYWMSWVRQAPGKGLEWVANIKQDGSEKYYVDSVKGRFTISRDNAKNSLYLQMNSLRAEDTAVYYCARVGSSSWYFDYWGQGTLVTVSS
VL: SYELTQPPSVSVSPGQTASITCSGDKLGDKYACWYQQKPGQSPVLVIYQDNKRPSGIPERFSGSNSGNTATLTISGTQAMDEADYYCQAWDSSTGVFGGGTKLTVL
B13: antibody 311 (antibody, V domains shown)
VH: QVQLQESGPGLVKPSETLSLTCTVSGYSISSGYYWGWIRQPPGKGLEWIGSIYHSGSTYYNPSLKSRVTISVDTSKNQFSLKLSSVTAADTAVYYCAREETLGSSWYESYIDYWGQGTLVTVSS
VL: SYVLTQPPSVSVAPGKTARITCGGNNIGSKSVHWYQQKPGQAPVLVIYYDSDRPSGIPERFSGSNSGNTATLTISRVEAGDEADYYCQVWDSSSDHPRVFGGGTKLTVL
B14: antibody 313 (antibody, V domains shown)
VH: QVQLVESGGGVVQPGRSLRLSCAASGFTFSSYAMHWVRQAPGKGLEWVAVISYDGSNKYYADSVKGRFTISRDNSKNTLYLQMNSLRAEDTAVYYCARGLGGSYYSLFDYWGQGTLVTVSS
VL: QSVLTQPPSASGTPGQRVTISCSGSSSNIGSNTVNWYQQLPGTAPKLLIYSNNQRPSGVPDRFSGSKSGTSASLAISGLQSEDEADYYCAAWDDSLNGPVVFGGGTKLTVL
B15: antibody 318 (antibody, V domains shown)
VH: QVQLVESGGGVVPPGRSLSLPCAASGFSFSAYAMHWLRQAPGKGLEWVAVISYDGTVKYVADSVRGRFTISRDNSNNTLYLQMTSLRSDDTAVYYCARDLGALAAAPTVYFVHWGQGTLVTVSS
VL: SYVLTQPPSVSVAPGKTATITCAGEDIGRKSVHWYQQKPGQAPVLVIFYYSDRPSGIPDRFSGSVSGNTATLTIGRVEAGDEADYFCQVWDRTTNHVIFGGGTKVTVL
B16: antibody 370 (antibody, V domains shown)
VH: QVQLVESGGGVVPPGRSLSLPCAASGFTFSAYAMHWLRQAPGKGLEWVAVISYDGTVKYVADSVRGRFTISRDNSNNTLYLQMTSLRSDDTAVYYCARDLGALAAAPTVYFVHWGQGTLVTVSS
VL: SYVLTQPPSVSVAPGKTATITCAGEDIGRKSVHWYQQKPGQAPVLVIFYYSDRPSGIPDRFSGSVSGNTATLTIGRVEAGDEADYFCQVWDRTTNHVIFGGGTKVTVL
B17: antibody 330 (antibody, V domains shown)
VH: QVQLVESGGGVVQPGRSLRLSCAASGFTFSSYAMHWVRQAPGKGLEWVAVISYDGSNKYYADSVKGRFTISRDNSKNTLYLQMNSLRAEDTAVYYCARDFQYYDFWSGYLTVSSPTSYYGMDVWGQGTTVTVSS
VL: NFMLTQPHSVSESPGKTVTISCTGSSGSIASNYVQWYQQRPGSAPTTVIYEDNQRPSGVPDRFSGSIDSSSNSASLTISGLKTEDEADYYCQSYDSSNVVFGGGTKLTVL
B18: antibody 336 (antibody, V domains shown)
VH: QVQLVESGGGVVQPGRSLRLSCAASGFTFSSYAMHWVRQAPGKGLEWVAVISYDGSNKYYADSVKGRFTISRDNSKNTLYLQMNSLRAEDTAVYYCARAQTDYYDSSGWFDYWGQGTLVTVSS
VL: SYELTQPPSVSVSPGQTARITCSGDALPKQYAYWYQQKPGQAPVLVIYKDSERPSGIPERFSGSSSGTTVTLTISGVQAEDEADYYCQSADSSGTPHWVFGGGTKLTVL
B19: antibody 338 (antibody, V domains shown)
VH: QVQLQESGPGLVKPSETLSLTCAVSGYSISSDYYWGWIRQPPGKGLEWIGSIYHSGSTYYNPSLKSRVTISIDTSKNQFSLKLSSVTAADTAVYYCARDPGNYDILTGIFDYWGQGTLVTVSS
VL: QSALTQPASVSGSPGQSITISCTGTSSDVGVYNYVSWYQQHPGKAPKLMIYDVTNRPSGVSNRFSGSKSGNTASLTISGLQAEDEADYYCSSYTSSSTLAVYVFGTGTKVTVL
B20: antibody 353 (antibody, V domains shown)
VH: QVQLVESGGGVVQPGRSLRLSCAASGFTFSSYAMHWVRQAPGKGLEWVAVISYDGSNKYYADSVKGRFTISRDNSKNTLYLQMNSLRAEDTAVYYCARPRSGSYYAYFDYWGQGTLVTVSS
VL: DIQMTQSPSSLSASVGDRVTITCRASQGISNYLAWFQQKPGKAPKSLIYAASSLQSGVPSKFSGSGSGTDFTLTISSLQPEDFATYYCQQYNSYPPTFGGGTKVEIK
B21: antibody 354 (antibody, V domains shown)
VH: QVQLVESGGGVVQPGRSLRLSCAASGFTFSSYAMHWVRQAPGKGLEWVAVISYDGSNKYYADSVKGRFTISRDNSKNTLYLQMNSLRAEDTAVYYCARDRPYYYGSGIPGYYGMDVWGQGTTVTVSS
VL: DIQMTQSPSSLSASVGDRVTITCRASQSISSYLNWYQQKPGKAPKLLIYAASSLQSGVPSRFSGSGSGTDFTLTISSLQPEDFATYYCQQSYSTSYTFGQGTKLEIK
B22: antibody 356 (antibody, V domains shown)
VH: QVQLVQSGAEVKKPGASVKVSCKASGYTFTSYGISWVRQAPGQGLEWMGWISAYHGNTNYAQKLQGRVTMTTDTSTSTAYMELRSLRSDDTAVYYCARVGLWWLGHADAFDIWGQGTMVTVSS
VL: DIQMTQSPSSLSASVGDRVTITCRASQGIRNDLGWYQQKPGKAPKRLIYAASSLQSGVPSRFSGSGSGTEFTLTISSLQPEDFATYYCLQHNSYPLTFGGGTKVEIK
B23: antibody 357 (antibody, V domains shown)
VH: QVQLVQSGAEVKKPGSSVKVSCKASGGTFSSYAISWVRQAPGQGLEWMGRIIPILGIANYAQKFQGRVTITADKSTSTAYMELSSLRSEDTAVYYCARGPIAVAGIGPWFDPWGQGTLVTVSS
VL: QSVLTQPPSVSAAPGQKVTISCSGSSSNIGNNYVSWYQQLPGTAPKLLIYDNNKRPSGIPDRFSGSKSGTSATLGITGLQTGDEADYYCGTWDSSLSAVVFGGGTKLTVL

Target: SARS-CoV-2 spike (S) protein (SARS-CoV-2, UniProt P0DTC2 14-1208)

Binder	Kd	koff	kon
B1	0.996 nM	8.36e-05 s⁻¹	84000 M⁻¹ s⁻¹
B2	5.37 nM	0.000695 s⁻¹	129000 M⁻¹ s⁻¹
B3	0.204 nM	6.24e-05 s⁻¹	305000 M⁻¹ s⁻¹
B4	4.78 nM	0.000862 s⁻¹	201000 M⁻¹ s⁻¹
B5	0.117 nM	5.43e-05 s⁻¹	464000 M⁻¹ s⁻¹
B6	1.6 nM	0.000127 s⁻¹	79800 M⁻¹ s⁻¹
B7	0.0225 nM	1.34e-05 s⁻¹	597000 M⁻¹ s⁻¹
B8	0.726 nM	7.63e-05 s⁻¹	105000 M⁻¹ s⁻¹
B9	13.8 nM	0.001 s⁻¹	72600 M⁻¹ s⁻¹
B10	17 nM	0.00171 s⁻¹	
B11	0.495 nM	6.89e-05 s⁻¹	139000 M⁻¹ s⁻¹
B12	0.532 nM	6.43e-05 s⁻¹	121000 M⁻¹ s⁻¹
B13	19.1 nM	0.000407 s⁻¹	21300 M⁻¹ s⁻¹
B14	0.0975 nM	4.89e-05 s⁻¹	502000 M⁻¹ s⁻¹
B15	11.1 nM	0.0017 s⁻¹	152000 M⁻¹ s⁻¹
B16	5.55 nM	0.000986 s⁻¹	178000 M⁻¹ s⁻¹
B17	9.54 nM	0.00073 s⁻¹	76500 M⁻¹ s⁻¹
B18	1.11 nM	0.00021 s⁻¹	190000 M⁻¹ s⁻¹
B19	0.882 nM	4.43e-05 s⁻¹	50200 M⁻¹ s⁻¹
B20	0.0601 nM	4.09e-05 s⁻¹	680000 M⁻¹ s⁻¹
B21	43.6 nM	0.00179 s⁻¹	41100 M⁻¹ s⁻¹
B22	3.65 nM	9.66e-05 s⁻¹	26500 M⁻¹ s⁻¹
B23	0.837 nM	6.53e-05 s⁻¹	78000 M⁻¹ s⁻¹
